Target: Tat peptide (47-57) (Human immunodeficiency virus 1)
Assay: EMSA; non-cognate RNA; higher affinity than CPP11; 10 mM potassium phosphate pH 7.5, 100 mM NaCl
Conditions: protein: synthetic; tags: chemically synthesized peptide; stem-loop

B1: wild-type RRE IIB RNA (ssRNA)
RNA: GGACCUGGUAUGGGCGCAGCGCAAGCUGACGGUACAGGCCAGGUCC
B1: binds.
